Laboratory results taken from patent EP4545559A2 (INSTITUTO BUTANTAN, dated 2025).
Where two headings read alike, the source gives them in different places.

How the values were obtained:
[1] = target: T1, RBD Gamma (K417T/E484K/N501Y) (SARS-CoV-2, UniProt P0DTC2 319-541); assay: SPR, antigen on CM5 sensor
T1 construct: domain: RBD

[2] = target: T2, RBD Delta (L452R/T478K) (SARS-CoV-2, UniProt P0DTC2 319-541); assay: SPR, antigen on CM5 sensor
T2 construct: domain: RBD

[3] = target: T3, RBD Omicron (G339D, S371L, S373P, S375F, K417N, N440K, G446S, S477N, T478K, E484A, Q493R, G496S, Q49 (SARS-CoV-2, UniProt P0DTC2 319-541)); assay: SPR, antigen on CM5 sensor
T3 construct: range 319-541

[4] = target: T3, RBD Omicron (G339D, S371L, S373P, …); assay: SPR kinetics; * dissociation in 360sec
[5] = target: T1, RBD Gamma (K417T/E484K/N501Y); assay: SPR kinetics; *** did not dissociate until 36000sec
[6] = target: T2, RBD Delta (L452R/T478K); assay: as above
[7] = target: T1, RBD Gamma (K417T/E484K/N501Y); assay: SPR, antigen on CM5 sensor; remark: listed apart in the source
[8] = target: T2, RBD Delta (L452R/T478K); assay: SPR, antigen on CM5 sensor; remark: listed apart in the source
[9] = target: T3, RBD Omicron (G339D, S371L, S373P, …); assay: SPR, antigen on CM5 sensor; remark: listed apart in the source
[10] = target: T3, RBD Omicron (G339D, S371L, S373P, …); assay: SPR kinetics; * dissociation in 360sec; remark: listed apart in the source
[11] = target: T1, RBD Gamma (K417T/E484K/N501Y); assay: SPR kinetics; *** did not dissociate until 36000sec; remark: listed apart in the source
[12] = target: T2, RBD Delta (L452R/T478K); assay: as above; remark: listed apart in the source
[13] = target: T1, RBD Gamma (K417T/E484K/N501Y); assay: SPR, antigen on CM5 sensor; remark: listed apart in the source
[14] = target: T2, RBD Delta (L452R/T478K); assay: SPR, antigen on CM5 sensor; remark: listed apart in the source
[15] = target: T3, RBD Omicron (G339D, S371L, S373P, …); assay: SPR, antigen on CM5 sensor; remark: listed apart in the source
[16] = target: T1, RBD Gamma (K417T/E484K/N501Y); assay: SPR kinetics; *** did not dissociate until 36000sec; remark: listed apart in the source
[17] = target: T2, RBD Delta (L452R/T478K); assay: as above; remark: listed apart in the source
[18] = target: T3, RBD Omicron (G339D, S371L, S373P, …); assay: as above
[19] = target: T1, RBD Gamma (K417T/E484K/N501Y); assay: SPR, antigen on CM5 sensor; remark: listed apart in the source
[20] = target: T2, RBD Delta (L452R/T478K); assay: SPR, antigen on CM5 sensor; remark: listed apart in the source
[21] = target: T3, RBD Omicron (G339D, S371L, S373P, …); assay: SPR, antigen on CM5 sensor; remark: listed apart in the source
[22] = target: T2, RBD Delta (L452R/T478K); assay: SPR kinetics; ** dissociation in 36000sec
[23] = target: T1, RBD Gamma (K417T/E484K/N501Y); assay: SPR kinetics; *** did not dissociate until 36000sec; remark: listed apart in the source
[24] = target: T3, RBD Omicron (G339D, S371L, S373P, …); assay: as above; remark: listed apart in the source
[25] = target: T1, RBD Gamma (K417T/E484K/N501Y); assay: SPR, antigen on CM5 sensor; remark: listed apart in the source
[26] = target: T2, RBD Delta (L452R/T478K); assay: SPR, antigen on CM5 sensor; remark: listed apart in the source
[27] = target: T3, RBD Omicron (G339D, S371L, S373P, …); assay: SPR, antigen on CM5 sensor; remark: listed apart in the source
[28] = target: T2, RBD Delta (L452R/T478K); assay: SPR kinetics; * dissociation in 360sec
[29] = target: T3, RBD Omicron (G339D, S371L, S373P, …); assay: SPR kinetics; * dissociation in 360sec; remark: listed apart in the source
[30] = target: T1, RBD Gamma (K417T/E484K/N501Y); assay: SPR kinetics; *** did not dissociate until 36000sec; remark: listed apart in the source
[31] = target: T1, RBD Gamma (K417T/E484K/N501Y); assay: SPR, antigen on CM5 sensor; remark: listed apart in the source
[32] = target: T2, RBD Delta (L452R/T478K); assay: SPR, antigen on CM5 sensor; remark: listed apart in the source
[33] = target: T3, RBD Omicron (G339D, S371L, S373P, …); assay: SPR, antigen on CM5 sensor; remark: listed apart in the source
[34] = target: T3, RBD Omicron (G339D, S371L, S373P, …); assay: SPR kinetics; ** dissociation in 36000sec
[35] = target: T1, RBD Gamma (K417T/E484K/N501Y); assay: SPR kinetics; *** did not dissociate until 36000sec; remark: listed apart in the source
[36] = target: T2, RBD Delta (L452R/T478K); assay: as above; remark: listed apart in the source

B1: Monoclonal antibody S.11.1.C8 (antibody, V domains shown)
VH: QVQLVESGGGVVQPGRSLRLSCAASGFTFSTFSMHWVRQAPGKGLEWVAVILYDGTYKSYADSVKGRFTISRDNSGNTLFLQMNSLRAEDSAVYYCARDFGEMTTYFDFWGQGTLVTVSS
VL: DIQMTQPPSSLSASVGDRVTITCRASQSIGNNLNWYQQKPGKAPKLLIYVASSLQSGVPSRFSGSGSGTDFTLTISSLQPEDFATYFCQQSYSTPPWTFGQGTKVEIK
notes: also called mAb S.11.1.C8
- RU [1]: 360 RU
- RU [2]: 799 RU
- RU [3]: 166 RU
- Kd [4]: 0.615 nM
- Kd [5]: ~0.103 nM
- Kd [6]: ~0.0131 nM

B2: Monoclonal antibody S.9.4.C7 (antibody, V domains shown)
VH: QVQLVESGGGVVQPGRSLRLSCAASGFTFRNYAMHWVRQAPGKGLEWVTVISYDGSDKYYADSVKGRFTISRDNSKNTLYLQMNSLRAEDTAVYYCAKDPVGGYCSGGRCYFHSHYFDYWGQGTLVTVSS
VL: NFMLTQPHSVSESPGKTVTISCTRSSGSIASYYVQWYQQRPGSSPTTVISEDNQRPSGVPDRFSGSIDSSSNSASLTISGLKTEDEADYYCQSYDSNNHVIFGGGTKLTVL
notes: also called mAb S.9.4.C7
- RU [7]: 481 RU
- RU [8]: 1150 RU
- RU [9]: 160 RU
- Kd [10]: 1.31 nM
- Kd [11]: ~0.205 nM
- Kd [12]: ~0.14 nM

B3: Monoclonal antibody S.10.1.C6 (antibody, V domains shown)
VH: QLQLQESGPGLVKPSETLSLTCTVSGGSISSSSYYWGWIRQPPGKGLEWIGSFYYSGGSYYNPSLKSRVTISVDTSKNQFSLKLSSVTAADTAVYYCARDEHGDYAVGYWGQGTLVTVSS
VL: QSVLTQPPSVSGAPGQRVTISCTGSSSNIGAGYDVHWYQQLPGTAPKLLIYGNNNRPSGVPDRFSGSKSGTSASLAITGLQAEDEADYYCQSYDSSLSALYVFGTGTKVTVL
notes: also called S.10.1.C6 mAb
- RU [13]: 134 RU
- RU [14]: 343 RU
- RU [15]: 66 RU
- Kd [16]: ~0.235 nM
- Kd [17]: ~0.00812 nM
- Kd [18]: ~0.804 nM

B4: Monoclonal antibody S.9.2.D7 (antibody, V domains shown)
VH: EVQLLESGGGLIQTGGSLRLSCAASGFTFSSYAMSWVRQAPGKGLEWVSVISDSGGSTYYADSVKGRLTISRDNSKNTLYVQMNSLRAEDTAVYYCAKGKGGIAAAGPAFLFDYWGQGTLVTVSS
VL: DIQMTQSPSLLSASAGDRVTISCRMSQGISSYLAWYQQKPGKAPELLISSASTLQSGVPSRFSGSGSGTDFTLTISYLQSEDFATYYCQQYYSFPTTFGGGTKVEIK
notes: also called mAb S.9.2.D7
- RU [19]: 50 RU
- RU [20]: 0 RU
- RU [21]: 0 RU
- Kd [22]: 0.00184 nM
- Kd [23]: ~0.000237 nM
- Kd [24]: ~0.00629 nM

B5: Monoclonal antibody S.11.1.D12 (antibody, V domains shown)
VH: EVQLLESGGGLVQPGGSLRLSCAASGFPFITYPMSWVRQAPGKGLEWVSDIGGIGGSTSYADSVKGRFTISRDNYQNTVYLQMHSLRAEDTAVYYCAKWKSRVDSSYKGGGWFDSWGPGTLVTVSS
VL: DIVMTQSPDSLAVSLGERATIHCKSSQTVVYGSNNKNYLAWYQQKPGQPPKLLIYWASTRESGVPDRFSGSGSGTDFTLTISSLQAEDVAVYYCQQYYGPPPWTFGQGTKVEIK
notes: also called mAb S.11.1.D12
- RU [25]: 44 RU
- RU [26]: 771 RU
- RU [27]: 145 RU
- Kd [28]: 0.636 nM
- Kd [29]: 3.73 nM
- Kd [30]: ~11 nM

B6: Monoclonal antibody S.9.4.F4 (antibody, V domains shown)
VH: QVQLVESGGGVVQPGRSLRLSCAASGFTFSHYGMHWVRQAPGKGLEWVAVILYDGSNEYYADSVKGRFTISRDNSKNTLYLQMNSLRAEDTAVYYCAKGAGTYCSGGNCYVAYFDYWGQGTLVTVSS
VL: AIRMTQSPSSLSASVGDRVTITCQASQDISNYLNWYQQKPGKAPKLLIYDASNLETGVPSRFSGSGSGTDFTVTISSLQPEDFATYYCQQYDNLPLTFGGGTKVEIK
notes: also called mAb S.9.4.F4
- RU [31]: 160 RU
- RU [32]: 373 RU
- RU [33]: 74 RU
- Kd [34]: 0.231 nM
- Kd [35]: ~0.0187 nM
- Kd [36]: ~0.00122 nM
